How the values were obtained:
[1] = system: Aedes aegypti female mosquitoes, Rockefeller strain; test: CDC bottle bioassay with deltamethrin, insecticide-susceptible Rockefeller strain; type: in vivo; conditions: diagnostic dosage 2 μg/mL of deltamethrin; Rockefeller strain adult females
Protocol: (§1) FIGS. 5A-C are graphs illustrating the dose-response curves for 3- to 5-day-old Aedes aegypti female mosquitoes on insecticide-susceptible Rockefeller strain (FIG. 5A) and on insecticide-resistant Rio de Janeiro strain (FIG. 5B). Mosquitoes were exposed to different concentrations of deltamethrin in 250-mL glass bottles for up to 24 hours and the percentage of mortality for each time point is shown. FIG. 5C, comparison of the mortality rates of female mosquitoes from Rockefeller (Rock) and Rio de Janeiro (RJ) strains exposed to 2 μg/mL of deltamethrin for different time-points. Data represent mean values of three replicates with standard deviation.
(§2) Mosquitoes were taken from an Ae. aegypti colony of the Rockefeller strain or from a mosquito field population of Ae. aegypti isolated from urban area of Rio de Janeiro, Brazil. Both lineages were reared continuously in the laboratory at 28° C. and 70-80% relative humidity. Adult mosquitoes were maintained in a 10% sucrose solution, and the adult females were fed with sheep blood for egg laying. The larvae were reared on dog/cat food unless stated otherwise.
(§3) Bottles were prepared following the Brogdon and McAllister (1998) protocol [Brogdon and McAllister (1998) Emerg Infect Dis 4:605-613]. […] At 15, 30 and 45 min intervals, the number of live and dead mosquitoes in each bottle was recorded. […]

[2] = system: Aedes aegypti female mosquitoes, Rio de Janeiro strain; test: CDC bottle bioassay with deltamethrin, insecticide-resistant Rio de Janeiro strain; type: in vivo
Protocol: as §1, §2, §3

[3] = system: Argonaute-3 (AAEL007823) mRNA; test: qPCR analysis of Ago-3 mRNA expression after dsRNA treatment; type: in vivo, Aedes aegypti; conditions: vs water; for Ago3 mRNA levels: larvae soaked 24 h in dsRNA, 24 and 48 hours after the end of dsRNA treatment
Protocol: Third instar larvae were treated (in groups of 100 larvae) in a final volume of 3 mL of dsRNA solution in autoclaved water (0.5 μg/μL for sodium channel (AAEL008297), PgP (AAEL010379) and Ago3 (AAEL007823) dsRNA, or 0.1 μg/μL for CYP9J26 (JF924909.1). The control group was kept in 3 ml sterile water only. Larvae were soaked in the dsRNA solutions for 24 hr at 27° C., and then transferred into new containers (300 larvae/1500 mL of chlorine-free tap water), which were also maintained at 27° C., and were provided 6 mg/100 mL lab dog/cat diet (Purina Mills) suspended in water as a source of food on a daily basis. As pupae developed, they were transferred to individual vials to await eclosion and sex sorting. For bioassays purpose only females up to five days old were used. See Flowchart 1, FIG. 1 for detailed explanation of this experiment.
Total RNA was extracted from groups of five Ae. aegypti fourth instar larvae and early adult male/female Ae. aegypti, using TRIzol (Invitrogen, Carlsbad, Calif., USA) according to the manufacturer's instructions. RNA was treated with amplification grade DNase I (Invitrogen) and 1 μg was used to synthesize cDNA using a First Strand cDNA Synthesis kit (Invitrogen). PCR products were purified using a QIAquick PCR purification kit (Qiagen). The MEGAscript RNAi kit (Ambion) was then used for in vitro transcription and purification of dsRNAs. See Flowchart 4, FIG. 4 for detailed explanation production off dsRNA.
Approximately 1000 ng first-strand cDNA obtained as described previously was used as template. The qPCR reactions were performed using SYBR® Green PCR Master Mix (Applied Biosystems) following the manufacturer's instructions. […] Raw quantification cycle (Cq) values normalized against those of the tubulin and S7 standards were then used to calculate the relative expression levels in samples using the 2^−ΔΔct method [Livak & Schmittgen, (2001) Methods. […]

[4] = system: Ae. aegypti Rockefeller strain; test: Oviposition assay after larval dsRNA soaking plus feeding; type: in vivo, Aedes aegypti; conditions: larvae soaked 24 h in 0.5 μg/μL dsRNA, fed twice with agarose plug containing dsRNA; 15 engorged females per cage; vs water control
Protocol: FIG. 12 is a flowchart illustration depicting introduction of dsRNA into mosquito larvae via soaking with different doses of “naked” dsRNA plus additional larvae feeding with food-containing dsRNA. Step a) 100 larvae from A. aegypti Rockefeller strain (3rd instar) were soaked for 24 hours with the respective dsRNAs (concentration range from 0.02-0.5 μg/μL) or only in water and were then fed 2 times with food plus agarose 2% containing dsRNA until they reach adult stage (Step b). Step c) The adults arising were allowed to copulate for 3-5 days. Step d) mosquitoes were fed with defibrinated sheep blood. Step e) after blood feeding 15 fully-engorged females were transferred into 3 small cages to be assayed for oviposition. Step f) the total number of laid eggs and the percentage of hatched eggs were counted. FIGS. 13A-B are graphs illustrating larvae from Ae. aegypti Rockefeller strain (3rd instar) soaked for 24 hours in 0.5 μg/μL of Aubergine (Aub) or Argonaute-3 (Ago) dsRNAs or water only. […] (FIG. 13A) The total number of laid eggs and the percentage of hatched eggs were counted (FIG. 13B). […]
(§4) Five days after the blood meal, an ovipositon cup was place inside each cage containing 15 females to allow the females to lay their eggs. […] The number of eggs laid was counted and used to check the viability and egg hatching rate.

[5] = system: Ae. aegypti Rockefeller strain; test: Egg hatching rate after larval dsRNA soaking plus feeding; type: in vivo, Aedes aegypti; conditions: larvae soaked 24 h in 0.5 μg/μL dsRNA, fed twice with agarose plug containing dsRNA; vs water control
Protocol: FIG. 12 is a flowchart illustration depicting introduction of dsRNA into mosquito larvae via soaking with different doses of “naked” dsRNA plus additional larvae feeding with food-containing dsRNA. Step a) 100 larvae from A. aegypti Rockefeller strain (3rd instar) were soaked for 24 hours with the respective dsRNAs (concentration range from 0.02-0.5 μg/μL) or only in water and were then fed 2 times with food plus agarose 2% containing dsRNA until they reach adult stage (Step b). Step c) The adults arising were allowed to copulate for 3-5 days. Step d) mosquitoes were fed with defibrinated sheep blood. Step e) after blood feeding 15 fully-engorged females were transferred into 3 small cages to be assayed for oviposition. Step f) the total number of laid eggs and the percentage of hatched eggs were counted. […] (FIG. 13A) The total number of laid eggs and the percentage of hatched eggs were counted (FIG. 13B). […]
as §4
To check the viability of the eggs the oviposition paper were kept to dry and embrionate for a period minimum of 5 days. […] The hatching rate (HR) for each treatment were calculated as follow: HR=total number of hatched larvae/total number of eggs oviposited). […]

Molecule: CC1(C)[C@H](C(=O)O[C@H](C#N)c2cccc(Oc3ccccc3)c2)[C@@H]1C=C(Br)Br [deltamethrin]
- mosquitoes dead (mortality) [1]: 100%
- mosquitoes in the population resistant to deltamethrin ([2]; Rio de Janeiro (RJ) strain, at diagnostic dosage 2 μg/mL): 36.05%
- mosquitoes killed (mortality) ([2]; diagnostic dosage 2 μg/mL of deltamethrin, Rio de Janeiro strain adult females): 63.95%

B1: Ago3: dsRNA targeting Argonaute-3 (AAEL007823), Example 1, SEQ ID NO: 1823 (nucleic acid)
chain: CCCCGTCGACGGCCACGAAGTTACGATCAAGATCATTTACAAGCGCAAACAGCGAATGAGCGAGAACATTCAATTCTACAACATTCTCTTCCAACGCATTATGAAAGTCCTGAAGATGGTCGAGATGGGTCGTAAGAACTTTGACCCCTCGGCCCCGAAACTGATTCCGCAGCATCGTCTGGAGATCTGGCCGGGATACGTTAGCGCTGTGGACGAATATGAGGGCGGCTTGATGTTGAATCTCGACGTGTCCCATCGTGTGCTGCTCCAGACGACGGTTTTGGATCACATCCGAACGCTGGCAAGGGCCAATCCCCAAGATTACAAAAACATGGCCACCAAATCGCTGCTGGGAGCCGTTATATTGACCCGA
modifications: double stranded RNA
- Ago3 mRNA expression ([3]; adult mosquitoes soaked with dsRNA as larvae): reached normal levels
- Ago3 mRNA levels [3]: decreased mRNA levels
- Ago3 mRNA levels ([3]; listed as dsRNA against Ago3): induce gene silencing
- oviposition rate (total number of laid eggs) [4]: no difference
- number of hatched eggs (hatchability) [5]: 50%

Reference: patent publication US20170071208A1, “COMPOSITIONS FOR MOSQUITO CONTROL AND USES OF SAME” (Forrest Innovations Ltd., priority 2014, published 2017)
